Assay results: article PMC6938348 (PLoS ONE, 2019)

Key:
soluble Her2 ectodomain [1] = molecular target: T1, soluble Her2 ectodomain (Homo sapiens (assumed; species and …, UniProt P04626); assay: SPR; antibody captured on an anti-hFc CM-5 surface, soluble Her2 ectodomain flowed (monovalent binding); single cycle kinetics in duplicate, 25°C, PBS with 3.4 mM EDTA and 0.05% Tween 20; 1:1 binding model; Biacore T200; settings: both partners purified
T1 construct: Her2 ectodomain, soluble

[2] = molecular target: T2, Her2 on cells (SKOV3, JIMT-1, MCF7) (Homo sapiens (endogenous in SKOV3, …, UniProt P04626)); assay: cell-based or functional assay
soluble Her2 ectodomain [3] = molecular target: T1, soluble Her2 ectodomain; assay: SPR; antibody captured on an anti-hFc CM-5 surface, soluble Her2 ectodomain flowed (monovalent binding); single cycle kinetics in duplicate, 25°C, PBS with 3.4 mM EDTA and 0.05% Tween 20; 1:1 binding model; Biacore T200; settings: both partners purified; remark: listed apart in the source
[4] = molecular target: T2, Her2 on cells (SKOV3, JIMT-1, MCF7); assay: flow cytometry on cells; saturation binding of full-size antibodies on live low-Her2 MCF7 cells, 4°C 2 h, 0 to 200 nM or 1 μM, washed, anti-human Fc AlexaFluor488-(Fab')2 detection; apparent KD; settings: one partner purified
[5] = molecular target: T2, Her2 on cells (SKOV3, JIMT-1, MCF7); assay: cell-based or functional assay; remark: listed apart in the source
[6] = molecular target: T2, Her2 on cells (SKOV3, JIMT-1, MCF7); assay: flow cytometry on cells; saturation binding of full-size antibodies on live high-Her2 SKOV3 cells, 4°C 2 h, 0 to 200 nM or 1 μM, washed, anti-human Fc AlexaFluor488-(Fab')2 detection; apparent KD; settings: one partner purified

B1: bH1 full-size antibody (Parent 2) (antibody, V domains shown)
VH: not shown
VL: DIQMTQSPSSLSASVGDRVTITCRASQDIPRSISGYVAWYQQKPGKAPKLLIYWGSYLYSGVPSRFSGSGSGTDFTLTISSLQPEDFATYYCQQHYTTPPTFGQGTKVEIK
notes: heavy chain of bH1 (Parent 2) as full-size human IgG; light chain of bH1 (Parent 2), a Herceptin variant with a 4-residue insertion in CDR-L1 and a few point mutations; FSA; IgG1 is surmised (Synagis is called the IgG1 isotype control); also called 2–13; source: CHO-3E7, co-transfected, purified (MabSelect Sure); copies: 2 + 2
Kd (soluble Her2 ectodomain [1]): 14.7 nM | IC50 of cytotoxicity, indirect ADC screen (DM1-conjugated secondary antibody), JIMT1 cells [2]: 7.4 nM | IC50 of cytotoxicity, indirect ADC screen (DM1-conjugated secondary antibody), MCF7 cells [2]: 8.2 nM | IC50 of cytotoxicity, indirect ADC screen (DM1-conjugated secondary antibody), SKOV3 cells [2]: 0.021 nM | IC50 of cytotoxicity, indirect ADC screen (MMAE-conjugated secondary antibody), JIMT1 cells [2]: 10.3 nM | IC50 of cytotoxicity, indirect ADC screen (MMAE-conjugated secondary antibody), MCF7 cells [2]: 35.6 nM | IC50 of cytotoxicity, indirect ADC screen (MMAE-conjugated secondary antibody), SKOV3 cells [2]: 0.078 nM | koff (soluble Her2 ectodomain [3]): 0.000741 s⁻¹ | kon (soluble Her2 ectodomain [3]): 100000 M⁻¹ s⁻¹ | Kd [4]: 0.87 nM | IC50 of cytotoxicity, antibody directly conjugated to DM1, SKOV3 cells [5]: 0.075 nM | IC50 of cytotoxicity, antibody directly conjugated to PNU, JIMT1 cells [5]: 0.5 nM | IC50 of cytotoxicity, antibody directly conjugated to PNU, MCF7 cells [5]: 2.02 nM | IC50 of cytotoxicity, antibody directly conjugated to PNU, SKOV3 cells [5]: 0.077 nM | Kd [6]: 2.41 nM
